Assay results taken from ChEMBL document CHEMBL1136204, “Thymidine and thymidine-5'-O-monophosphate analogues as inhibitors of Mycobacterium tuberculosis thymidylate kinase” (Bioorg Med Chem Lett, 2003).

What was measured:
[1] = substrate: Cc1cn([C@H]2C[C@H](O)[C@@H](COP(=O)(O)O)O2)c(=O)[nH]c1=O; assay: Affinity towards thymidine monophosphate kinase (TMPKmt) in Mycobacterium tuberculosis using HPLC chromatography test
[2] = substrate: Cc1cn([C@H]2C=C[C@@H](COP(=O)(O)O)O2)c(=O)[nH]c1=O; assay: Affinity towards thymidine monophosphate kinase (TMPKmt) in Mycobacterium tuberculosis

B1: Thymidylate kinase (Mycobacterium tuberculosis), P9WKE1 (protein)
chain: MLIAIEGVDGAGKRTLVEKLSGAFRAAGRSVATLAFPRYGQSVAADIAAEALHGEHGDLASSVYAMATLFALDRAGAVHTIQGLCRGYDVVILDRYVASNAAYSAARLHENAAGKAAAWVQRIEFARLGLPKPDWQVLLAVSAELAGERSRGRAQRDPGRARDNYERDAELQQRTGAVYAELAAQGWGGRWLVVGADVDPGRLAATLAPPDVPS
**Q.** B1 was tested. Which Km [1] did it give?
**A.** 40 µM

**Q.** What about the Km [2] of the same protein?
**A.** 140 µM
